Results published in paper doi:10.1101/2020.09.28.317578.
Where “and” joins values, the source holds several entries; their conditions need not be identical. Equal values may be shown once.

Target: AcrIIA22 (wild type, thrombin-cleaved) (Clostridial genus CAG-217 (human gut metagenome; taxonomy inferred by the paper))
Test: SEC

stoichiometry N: 4 and 5
Substance: AcrIIA22 (wild type, thrombin-cleaved) (natural protein)
